Assay: soluble on expression in E. coli; label from the status in PepcDB or PDB records

| Sequence | soluble on expression in E. coli |
| --- | --- |
| MDPVEAGDWIAGRPLQLVFLSGLNPVNKPAHNSIVNVFRNRTADKPPLHIRVVSGELDIPPKRETGSGKGILRREWPQKYLDKVPALIVVFIDLEWDHPSWEEKKTEAESKVASIRGSLRHGTKIALVLIQQKSTSISDNLAADRAHELCQACSLSSKQLFILPADNLLAPNTTNLQNFALKLELAFHELCQAFYQQRLKTIRSRNIPNNSPALVVRQQFKLAFLSELRQDTHTALRNYRLAYDQCRDTVEQWDGVDVFEWRSVVGLLNYKVQQGLLKTKNSVISTRGMCELCFLHSTALEAINQMRRHTTVFFSSSPGIYPTPHLASIELLLWKSKQCYQFAHLFERSVAGGLSALATLNPGTHLDQAASIYSAANTEIAALKRNAPQNVPYPSPDPLANSSSTVFFGQRPWRINHEGLATAEVEAAAVTAIIQRLVVNHEGVISLLSAALAQYQKYGCLRMKKKVMMEMANTCYANNEIQRALRFWGLVVKDNALPYSIRKDMMHRATWAAYAITSIQDYAVCCMQLMCPAYSEVLPSDCVKGLLDVLDGKPPGSPFPNDDISQEQLHTYQLQWQHVLQEHPAFVVQASKIAELFLETRVSFLDQQTVEQDSKVAVRVEIVSKIEQVIRLNDVSVHLKAKKFPPDANQTANDADCLIYDPIHLGSVEVSKSKPLQRVVLLDLKNAKQNWIVTVTKVTLDLGNAIRGNIEFDENALNRNCHVENIIGLEFLKIGVAKTSVKLESVEKVDCLIGEVTSTELTIRNTCKSSPIHGLQLDFKRKEQKHAEAAAVLFVEQDGTELKSEFSKSVCEQLGAGEMAKIPVMFSAQLVGDYVLQLELSYKISEDGILVTKSTMLEVGVTAKEPFTVTSTVMNMNGIPMTSILNNCDHILNASIQSAASIVISSVEFLMADVVTLCDTINGGSGKNLNDKVHSEEVICYSAVIRVLVKEDESETPLGRMSVEWRRAVPNSCPVRSVAPLCRIPVLACPISISSHIKTNPAIVRQPIEICFELKSHSKEAVEISTNFDLNDVFMFSGERKVTMTVLPGATRRVTVVVMALSAGRLNFPKISLKSPQISDQTLQQSLRTLPAAIFVLPKAKDLAPHP | not soluble |
| MDPVRILRHLITGQSAIKRAFPPATLTVIEQAIAHSETLHGGEIVFAVEASLDLPLLLQNQIIRERAIDVFSLLRVWDTEHNNGVLIYLLMADHDVEIVADRGIHTKVDQTIWETACDTMKTTFRHGQFEQGVLAGIDLSTRVLQQFFPASTGKRKSELPDRPVVLLEHHHHHH | not soluble |
| MDQAELSIEQVLKRDIPWETYMNTKLVSAKGLQLLRRYDKKPESARAQLLDEDGPAYVHLFVSILRDIFKEETVEYVLALIYEMLSANPTRARLFHDESLANEDTYEPFLRLLWKGNWFIQEKSCKILAWIISARPKAGNAVIGNGIDDVLKGLVEWLCAQLKQPSHPTRGVPIAISCLSSLLKEPVVRSSFVQADGVKLLVPLISPASTQQSIQLLYETCLCIWLLSYYEPAIEYLATSRTMQRLTEVVKHSTKEKVVRVVILTFRNLLPKGTFGAQMVDLGLPHIIHSLKTQAWSDEDLLDALNQLEEGLKDKIKKLSSFDKYKQEVLLGHLDWNPMHKETNFWRENVTCFEENDFQILRVLLTILDTSSDPRSLAVACFDISQFIQYHAAGRVIVADLKAKERVMKLINHENAEVTKNAILCIQRLLLGAKYASFLQA | soluble |
| MDQVVVFQKMFEQVRKEQNFSWFYSELKHHRIAHYIYYLATDNIRIITHDDTVLLLRGTRNLLKVSTTKNPAKIKEAALLHICGKSTFREYCSTLAGAGVFRWVTDVNHNKRSYYAIDNTLLYIEDVENNKPLI | not soluble |
| MDRAPVSSRRPCASQDPQRRPLCREEEGATPTALAVSSTTLGGRGGAHMCSCTVSSPNREGTCSSNILSYTLTHSTSPVVPWGCGRQPNHLQAPPRLAPLTESPIVARGFGPPPIAPAPLALAESSEHALCAPQLTFTAGAPGGTCLCSARSALPLLPFSSVLTASQRATPVPVWRRSKPLTRLPATTLGPTLSGNSGSPDDVVVALSDASMPKGETGEWMCAEASLQPSAAEPTPNAGSAVRHVDYQAAATQTGCVGSSLAAKVATESSQMALPDALAHLVEPPQGASAPSKTATDQLVNAPVGDIELRKRREEDSSDARASLSSALSSLGHPSNHNVHSSVDGVLWAHEAPEQPAYAHQHQLPAIFSQLVQDLLAAEPRADVEGDDDLLERWIQSWFENRCMTQPLQQSRSNSMKHLRTLQEAAVGAIANGAYVQGARSSNYVEPREKPAVDKNVGDATHAGPAARPAAGPSTTISASAAVTRTTTKSASAQLFPSSTAASPPHQYVPLTVEYSCSTLQSRMTSGASQRATSPPKPPQAQPLPVSPGTLHTAGASSTPGPPPHSAADGGGGVLAAVVGLSSPPQQPQQQPQPAKPLSGGPHLPAPASTRSMSSKQTVVAAAALAGGGEGDKGASGARPKLATTACAVFAHSSSSSAPKEAAHPHE | soluble |
| MDRRRFLVGLLGLGLARGQGLRVEEVVGGLEVPWALAFLPDGGMLIAERPGRIRLFREGRLSTYAELSVYHRGESGLLGLALHPRFPQEPYVYAYRTVAEGGLRNQVVRLRHLGERGVLDRVVLDGIPARPHGLHSGGRIAFGPDGMLYVTTGEVYERELAQDLASLGGKILRLTPEGEPAPGNPFLGRRGARPEVYSLGHRNPQGLAWHPKTGELFSSEHGPSGEQGYGHDEVNLIVPGGNYGWPRVVGRGNDPRYRDPLYFWPQGFPPGNLAFFRGDLYVAGLRGQALLRLVLEGERGRWRVLRVETALSGFGRLREVQVGPDGALYVTTSNRDGRGQVRPGDDRVLRLL | soluble |
| MDSFLMKGYIKEANIDYSCSRGSMEDLPKWEFREIPKVPRAVMPSLSLEERKNNFNEVELGLSEEVARKEARRCLKCGCSARFTCDLRKEASNHGIVYEEPIHDRPYIPKVDDHPFIVRDHNKCISCGRCIAACAEIEGPGVLTFYMKNGRQLVGTKSGLPLRDTDCVSCGQCVTACPCAALDYRRERGKVVRAINDPKKTVVGFVAPAVRSLISNTFGVSYEEASPFMAGLLKKLGFDKVFDFTFAADLTIVEETTEFLSRIQNKGVMPQFTSCCPGWINFVEKRYPEIIPHLSTCKSPQMMMGATVKNHYAKLMGINKEDLFVVSIVPCLAKKYEAARPEFIHDGIRDVDAVLTTTEMLEMMELADIKPSEVVPQEFDEPYKQVSGAGILFGASGGVAEAALRMAVEKLTGKVLTDHLEFEEIRGFEGVKESTIDVNGTKVRVAVVSGLKNAEPIIEKILNGVDVGYDLIEVMACPGGCICGAGHPVPEKIDSLEKRQQVLVNIDKVSKYRKSQENPDILRLYNEFYGEPNSPLAHELLHTHYTPKHGDSTCSPERKKGTAAFDVQEFTICMCESCMEKGAENLYNDLSSKIRLFKMDPFVQIKRIRLKETHPGKGVYIALNGKQIEEPMLSGNIPDESESE | soluble |
| MDSHQQPYASQAQADTTLFPEQTRESLQALAVKLQPLIEGHRLDNLVDLLSLLSDIVDLLDPAMVDRLAQLFEQVTSVGWSVGNAVRVAKAELLREQPPSLKDLLRLLRDADSRRGLALVLGSLRSLGRQLAAEQEVAHGA | not soluble |
| MDSPAWMFTKALSHRQKVTRLYKRCLREVDNWYGGNNLEVRFQKCIIRARFDANADEVDTRKSQILLADGCRQLWEKRHFKPFRFALDPGGSSYDRERESPDEIVDSDQWTLAEREQFPYYFNTREQRKKELLTHWAKIEKAWDEEIASIQTQLPAAAPTVSK | not soluble |
| MDSQKDFNLGDSSKGEKEGMQPSTGNNQFEPFEFLKKMIQPGRVMKRSKNNLSSNEVWSVCRAVIDEFKKEQNLMEVSAPVTVIGDVHGNFHDLYRALLARTEQDITDEQKSNFSTRQFVRDKYVFLGNYIDKGPRSIECICLLFAFKICFPQKYILLRGPHECPSVNSSEFLGVMETFSPNHFKKIHKKFNEAFSWMPLAAVVGQKILCVHGGISPRLTSWEDIRKIKRPLKDATEDPLATDLLFADTLDFDLIHIPTRKPKYEFNVIRNMSVMYNEAAVTQFCEKFNLKLIIRSHMKVPFGYRFFSEKRLITIFNSTGFQNESNYGAVLKIDGNAKITIISLLPQQSKAEVQEKAHHSDMTSECNTMSSKGP | not soluble |
| MDSQVEGKISPSQKESSSTSGLVSPSEDGPAHQKIHRDQLSVDQIKKIREERAQKRQVRRNSLISQGKDPDFPTPDLQFIERPFLPINHDNSKGLTPATIQVTQDSLDVKIMTYNTLAQTLIRRDFFPESGPALKWHKRSKVLVHELKKYRPDVVSLQEVDYNELNFWQENFHKLGFDVIFKRHEGKTHGLLVAWNNKKFQLDNDWMLDYDNILAGNVISARTRTKNIALIISLYFKGITDSSSRGIIVANTHLFWHPFGVFERLRQSYLVLQKIQEIKACSKYNGWHSLLMGDFNTEPEEPPYLAITKRPLILKGPIRAMVECSLAYRYSKKRNGEESDQDDEECDEKSRGEGHSDQPQNPKPESFTATKEEKALVNQLVALHNSLHVKGVSLYGIGYGKVHPENANGSHGEPGLSNWANTWCGLLDYIFYIEGDHNQDTRQKEPLNAFEGNNNVKIIGYLRMPCAQEMPKHSQPFEGEYASDHISLMCQIRLFFGGEKVHSLK | not soluble |
| MDSSSISSLLEDLKHSDALVREQATKKLWRIWFQQKGMYGLEKIDQSQKLLDAGEITEAEVMLTQLIQEQPDFAEAWNRRAFLYYSMGEYQKSLADCQMVIQINPVHFGALHGIGLCYAALGKYAKAIKAFKRALEIQPYSLVNQKLILECTFRLSLEHHHHHH | not soluble |
| MDTMRQRILVVDDDASLAEMLTIVLRGEGFDTAVIGDGTQALTAVRELRPDLVLLDLMLPGMNGIDVCRVLRADSGVPIVMLTAKTDTVDVVLGLESGADDYIMKPFKPKELVARVRARLRRNDDEPAEMLSIADVEIDVPAHKVTRNGEQISLTPLEFDLLVALARKPRQVFTRDVLLEQVWGYRHPADTRLVNVHVQRLRAKVEKDPENPTVVLTVRGVGYKAGPPTSGSHHHHHH | soluble |
| MDVHIDNQVLSGLGTPLLVHLFVPDTVMAELCPNRVPNCEGAWCQTLFSDRTGLTRVCRVFAARGMLPGRPSHRGTFTSVPVYCDEGLPELYNPFHVAALRFYDEGGLVGELQIYYLSLFEGAKRALTDGHLIREASGVQESAAAMQPIPIDPGPPGGAGIEHMPVAAAQVEHPKTYDLKQILLEITQEENRGEQRLGHAGSPALCLGLRLRAGAETKAAAETSVSKHHPALENPSNIRGSAGGEGGGGRAGTGGTVGVGSGALSRVPVSFSKTRRAIRESRALVRGIAHIFSPHALYVVTYPELSAQGRLHRMTAVTHASPATDLAEVSILGAPEREFRFLISVALRISASFREKLAMQAWTAQQEIPVVIPTSYSRIYKNSDLIREAFFTVQTRVSWESCWVKATISNAPKTPDACLWIDSHPLYEEGASAWGKVIDSRPPGGLVGAASQLVALGTDGHCVHLATTSDGQAFLVLPGGFVIKGQLALTPEERGYILARHGIRREQ | not soluble |
| MDVIKIGDIVARKSYQCDLLFRVIDIKEKNGEWEAILYGEDVRLVADAPCSDLVVIDEQEQQERKKREIELLEQSYRLFRQDYQAIKQKVEYRATGGYRVEKDFFQIPGRVLHLDGDPLYLRKCMDLYERIGVPVHGIYCEESEMPEKVGYWIEQFRPDILVITGHDSYSKSKGKVHELKAYRHSRHFVQTVKEARKKVPHLDQLIIFAGACQSHFESLIRAGANFASSPARVNIHALDPVYIVSRLSFTPFTETVDVWDVLRNTLTGEKGLGGVETKGVLRTGMPFRLIEDREENRRS | not soluble |
| MDVKPDRVIDARGSYCPGPLMELIKAYKQAKVGEVISVYSTDAGTKKDAPAWIQKSGQELVGVFDRNGYYEIVMKKVK | soluble |
| MDVPTAISIERVVKEMKSLEITLHITPTGPSVGFANINGFNFQFIVLPSVLIARADRYLSETKSDPRIYLASNEVNNRTVRGGIFVVDNSAAPIMRAEVDICSAAGLTDSQLHMCLSNSVNDVLDLQHSWAKATAI | not soluble |
| MDVQIFPHRLLGADTTEKLLNRLEDISGVKRMVIHGQRLPPEDHPDRRIISVKGHEFELQVKTGRVLLEIEDEDTIADIKRVCEDLLPFGYDVTPGKYIRTQKTVTDEIKYGEDLDKVPEELIGLTDQNARLSERATIIKRKKEHLEHHHHHH | soluble |
